Reference: patent publication US6159731, “Daxx, a Fas-binding protein that activates JNK and apoptosis” (Massachusetts Institute of Technology, dated 2000)

Legend:
[1] = molecular target: full length murine Fas expressed in cells (murine) (UniProt P25446)
[2] = molecular target: glutathione S-transferase (GST) (Schistosoma japonicum (Blood fluke), UniProt P08515 = GST); test: GST pull-down of in vitro translated 35S-Daxx
Source text: In the two-hybrid system, the Daxx C-terminal region interacted strongly with Fas, confirming that Daxx is the functional homolog of clone A21 (FIG. 1B). We then tested the binding of full length murine Daxx protein in vitro and in mammalian cells. In vitro translated, ^35S-labeled Daxx bound to immobilized glutathione S-transferase (GST) fusion proteins of Fas death domain and TNFR1 intracellular tail but not to immobilized GST or GST-CD40 intracellular tail or GST-Fas lpr^cg death domain (FIG. 3A). Positions of MW standards (in kDa) are shown at left. Coomassie stained GST fusion proteins from the same gel were aligned to show protein levels. Daxx migrated with an apparent molecular weight of approximately 120 kDa on SDS-PAGE; this slower than expected migration may reflect the high content of acidic residues in Daxx. In the GST pull-down assay, ^35S-Daxx bound to GST-FasDD but only very weakly to GST-TNFR1. This discrepancy with the two-hybrid result (FIG. 1) may be due to the nonlinear readout of the two-hybrid system. Deletion of 162 amino acids from the C-terminus of Daxx abrogated binding to GST-FasDD while the C-terminal 112 amino acids (DaxxC) was sufficient to bind GST-FasDD (FIG. 3B), consistent with the two-hybrid results. Daxx(-162) was missing C-terminal 162 aa of Daxx; DaxxC corresponded to aa 628-739. […]

Molecule: HA-Daxx (hemagglutinin-tagged full length murine Daxx)
- specific apoptosis of L929 cells stably overexpressing Daxx (L/Daxx) after Fas transfection [1]: 3 fold

B1: in vitro translated 35S-labeled full length murine Daxx (other)
chain: MATDDSIIVLDDDDEDEAAAQPGPSNLPPNPASTGPGPGLSQQATGLSEPRVDGGSSNSGSRKCYKLDNEKLFEEFLELCKTETSDHPEVVPFLHKLQQRAQSVFLASAEFCNILSRVLARSRKRPAKIYVYINELCTVLKAHSIKKKLNLAPAASTTSEASGPNPPTEPPSDLTNTENTASEASRTRGSRRQIQRLEQLLALYVAEIRRLQEKELDLSELDDPDSSYLQEARLKRKLIRLFGRLCELKDCSSLTGRVIEQRIPYRGTRYPEVNRRIERLINKPGLDTFPDYGDVLRAVEKAATRHSLGLPRQQLQLLAQDAFRDVGVRLQERRHLDLIYNFGCHLTDDYRPGVDPALSDPTLARRLRENRTLAMNRLDEVISKYAMMQDKTEEGERQKRRARLLGTAPQPSDPPQASSESGEGPSGMASQECPTTSKAETDDDDDDDDDDDEDNEESEEEEEEEEEEKEATEDEDEDLEQLQEDQGGDEEEEGGDNEGNESPTSPSDFFHRRNSEPAEGLRTPEGQQKRGLTETPASPPGASLDPPSTDAESSGEQLLEPLLGDESPVSQLAELEMEALPEERDISSPRKKSEDSLPTILENGAAVVTSTSVNGRVSSHTWRDASPPSKRFRKEKKQLGSGLLGNSYIKEPMAQQDSGQNTSVQPMPSPPLASVASVADSSTRVDSPSHELVTSSLCSPSPSLLLQTPQAQSLRQCIYKTSVATQCDPEEIIVLSDSD
modifications: 35S-labeled (in vitro translated)
- binding result [2]: no binding
